Biological target: the molecule itself
Assay: X-ray crystal structure, 1.9 A, space group C2221
Text: Programs, MOSFLM and SCALA (CCP4) were used in the data processing of the detected diffraction pattern and intensity data.

B1: GFP-like fluorescent protein from Chiridius poppei, CpYGFP (recombinant, wild type) (other)
chain: MTTFKIESRIHGNLNGEKFELVGGGVGEEGRLEIEMKTKDKPLAFSPFLLSHCMGYGFYHFASFPKGTKNIYLHAATNGGYTNTRKEIYEDGGILEVNFRYTYEFNKIIGDVECIGHGFPSQSPIFKDTIVKSCPTVDLMLPMSGNIIASSYARAFQLKDGSFYTAEVKNNIDFKNPIHESFSKSGPMFTHRRVEETHTKENLAMVEYQQVFNSAPRDM
modifications: G55-Y56-G57 cyclised and oxidised to the p-hydroxybenzylideneimidazolinone fluorescent moiety
notes: Expressed in E. coli from pET101-NFP, purified and crystallised; In the crystal (space group C2221, PDB 2DD7) it is seen as a dimer; also called recombinant CpYGFP; wild-type CpYGFP
binding result: binds

From patent publication US20090318673A1 (NEC SOFT, published 2009)
